Results published in article PMC6884552, “Glycogen branching enzyme controls cellular iron homeostasis via Iron Regulatory Protein 1 and mitoNEET” (Nature Communications, 2019).

Target: T1, Flag-tagged Drosophila Iron Regulatory Protein 1A (IRP1A), wild type (Drosophila, UniProt Q9VCV4 1-902)
T1 construct: Drosophila IRP1A, cDNA LD36161; also called wild type IRP1A; 3x Flag-tagged IRP1A; source: S2 cells, transfected, in lysate
T1 sequence (looked up): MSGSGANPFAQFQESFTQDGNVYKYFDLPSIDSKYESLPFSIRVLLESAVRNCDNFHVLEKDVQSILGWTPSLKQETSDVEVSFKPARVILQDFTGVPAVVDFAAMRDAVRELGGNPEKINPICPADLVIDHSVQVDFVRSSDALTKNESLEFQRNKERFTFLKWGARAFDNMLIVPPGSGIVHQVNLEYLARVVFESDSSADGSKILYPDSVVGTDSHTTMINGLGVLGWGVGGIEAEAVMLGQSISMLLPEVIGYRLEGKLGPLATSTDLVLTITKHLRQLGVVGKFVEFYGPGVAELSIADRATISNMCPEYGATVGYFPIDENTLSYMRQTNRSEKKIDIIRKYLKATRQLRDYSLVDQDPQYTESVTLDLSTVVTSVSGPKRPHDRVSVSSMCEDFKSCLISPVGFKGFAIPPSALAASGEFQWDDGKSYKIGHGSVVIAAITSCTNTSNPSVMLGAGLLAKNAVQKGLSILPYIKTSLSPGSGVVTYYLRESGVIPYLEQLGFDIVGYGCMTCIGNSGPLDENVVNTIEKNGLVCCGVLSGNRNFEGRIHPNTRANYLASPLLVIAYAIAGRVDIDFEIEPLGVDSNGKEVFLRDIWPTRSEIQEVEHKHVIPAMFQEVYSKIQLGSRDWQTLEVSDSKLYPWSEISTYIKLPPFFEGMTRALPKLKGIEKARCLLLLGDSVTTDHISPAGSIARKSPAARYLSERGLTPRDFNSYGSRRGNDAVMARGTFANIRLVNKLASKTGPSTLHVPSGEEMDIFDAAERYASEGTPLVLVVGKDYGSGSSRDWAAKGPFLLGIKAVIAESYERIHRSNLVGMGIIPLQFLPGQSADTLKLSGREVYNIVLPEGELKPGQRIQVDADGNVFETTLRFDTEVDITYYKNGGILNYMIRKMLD
Assay: co-IP; S2 cells, triple co-transfection of 3xFlag-IRP1A, 6xMyc-AGBE and 3xHA-Cisd2 from one plasmid; Flag-IRP1A as bait; co-precipitated Cisd2 quantified against the sample without AGBE; three biological replicates
Conditions: partners not purified

B1: HA-tagged Drosophila Cisd2 (natural protein, UniProt Q9VAM6 1-133, looked up)
chain: MEPISHLVKSSLPNYLSSLPVPDSIGGWFKLSFKDWLALIPPTVVVAGLGYTAYLAYCPAARASCAAKNSGRCNNHIRKNEPKVVDMIDVEDIAEKAAFCRCWKTKNWPYCDGSHGEHNKQTGDNVGPIVIKK
notes: Drosophila Cisd2, cDNA RE49709; also called mitoNEET; Cisd2/mitoNEET; source: S2 cells, transfected, in lysate
- fold change of co-immunoprecipitated Cisd2 with AGBE co-transfected against without AGBE: ~3 fold
